Experiments:
[1] = molecular target: His-MS2-MBP (MS2 coat protein fused to maltose binding protein) (bacteriophage MS2) (UniProt P03612); assay: SPR; conditions: kon/koff fit, HBS-EP+; SPR: HBS-EP+ running buffer, Biacore X100, binding temperature not given; gel cleavage: 500 uM MgCl2, 150 mM NaCl, 1 mM DTT, 10 mM HEPES pH 7.4, 37 C
[2] = molecular target: His-MS2-MBP (MS2 coat protein fused to maltose binding protein) (bacteriophage MS2) (UniProt P03612); assay: ribozyme cleavage inhibition (gel); conditions: SPR: HBS-EP+ running buffer, Biacore X100, binding temperature not given; gel cleavage: 500 uM MgCl2, 150 mM NaCl, 1 mM DTT, 10 mM HEPES pH 7.4, 37 C

UniProt P03612, sequence (P03612 whole entry, the tested form may be a part): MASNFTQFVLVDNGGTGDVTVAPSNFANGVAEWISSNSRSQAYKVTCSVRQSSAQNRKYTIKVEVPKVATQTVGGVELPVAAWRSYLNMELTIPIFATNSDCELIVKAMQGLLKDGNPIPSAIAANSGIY

| Sequence | Kd [1] | IC50 [2] |
| --- | --- | --- |
| GCUGUCACCGGAAUCAAGGUCCGGUCUGAUGAGUCCGACCAUCAGGAGGACGAAACAGC [MS2-B3] | 296 nM | – |
| GCUGUCACCGGAAUCAAGGUCCGGUCUGAUGAGUCCGUUGUCCACCAUCAGGGGACGGGACGGAGGACGAAACAGC [MS2-A2] | 6.08 nM | 19 nM |
| GCUGUCACCGGAUGUGCUGCAGGAUCACCGCAUUUCCGGUCUGAUGAGUCCGUGAGGACGAAACAGC [MS2-B1] | 630 nM | – |
| GCUGUCACCGGAUGUGCUUUCCGGUCUGAUGAGUCCGUGGUCCACCAUCAGGGGACUGGACUGAGGACGAAACAGC [MS2-A3] | 253 nM | – |
| GCUGUCACCGGAUGUGCUUUCCGGUCUGAUGAGUCCGUUGCGUAGGAUCACCACGUGGCGCGGAGGACGAAACAGC [MS2-A8] | 50 nM | – |
| GCUGUCACCGGAUGUGCUUUCCGGUCUGAUGAGUCCGUUGUCCAGGAUCACCGGACGGGACGGAGGACGAAACAGC [MS2-A1] | 24.5 nM | 63 nM |
| GCUGUCACCGGAUGUGCUUUCCGGUCUGAUGAGUCCGUUGUCCUAGGAUCACCAGGAAGGGACGGAGGACGAAACAGC [MS2-A7] | 279 nM | – |
| GCUGUCACCGGAUGUGGUUUCCGGUCUGAUGAGUCCGACCAUCAGGAGGACGAAACAGC [MS2-B2] | 237 nM | – |
| GCUGUCACCGGAUUCGGGAUCCGGUCUGAUGAGUCCGACCAUCAGGAGGACGAAACAGC [MS2-B4] | 224 nM | – |
